Measurements as given in publication PMC12990809.

Experiments:
Assay in all cases: pulldown
Conditions in all cases: 20 nM protein, 1.5 uM RNA pool; 20 mM HEPES pH 7.8, 70 mM KCl, 10 mM NaCl, 10% glycerol, 2 mM DTT, 0.1 ug/uL BSA; 30 min, 4 C
[1] = molecular target: T1, PK21151.1 (Cannabis sativa) (UniProt A0A7J6F7E6)
T1 sequence: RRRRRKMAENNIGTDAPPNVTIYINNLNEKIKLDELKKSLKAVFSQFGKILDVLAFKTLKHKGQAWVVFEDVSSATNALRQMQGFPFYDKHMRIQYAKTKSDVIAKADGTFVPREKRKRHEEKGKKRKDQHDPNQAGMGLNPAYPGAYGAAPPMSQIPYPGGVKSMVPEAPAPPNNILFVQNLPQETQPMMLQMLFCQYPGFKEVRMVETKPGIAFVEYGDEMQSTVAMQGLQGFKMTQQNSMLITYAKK

PUF60 (Homo sapiens) = molecular target: T2, PUF60 (Homo sapiens) (UniProt Q9UHX1)
T2 sequence: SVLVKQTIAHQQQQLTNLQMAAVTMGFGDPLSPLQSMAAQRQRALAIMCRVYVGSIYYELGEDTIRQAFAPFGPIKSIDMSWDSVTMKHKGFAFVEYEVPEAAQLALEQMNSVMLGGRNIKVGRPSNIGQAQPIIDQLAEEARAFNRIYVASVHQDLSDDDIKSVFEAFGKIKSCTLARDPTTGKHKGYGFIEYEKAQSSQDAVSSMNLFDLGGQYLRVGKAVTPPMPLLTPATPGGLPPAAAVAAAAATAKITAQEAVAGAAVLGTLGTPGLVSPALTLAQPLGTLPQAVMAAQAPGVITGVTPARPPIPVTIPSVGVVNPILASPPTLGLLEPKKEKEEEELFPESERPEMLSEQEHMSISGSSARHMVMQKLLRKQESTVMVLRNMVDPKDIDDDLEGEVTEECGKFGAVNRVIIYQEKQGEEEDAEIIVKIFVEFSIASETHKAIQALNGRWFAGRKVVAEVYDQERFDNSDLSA

FUBP1 (Homo sapiens) = molecular target: T3, FUBP1 (Homo sapiens) (UniProt A0ACI8RIE7)
T3 sequence: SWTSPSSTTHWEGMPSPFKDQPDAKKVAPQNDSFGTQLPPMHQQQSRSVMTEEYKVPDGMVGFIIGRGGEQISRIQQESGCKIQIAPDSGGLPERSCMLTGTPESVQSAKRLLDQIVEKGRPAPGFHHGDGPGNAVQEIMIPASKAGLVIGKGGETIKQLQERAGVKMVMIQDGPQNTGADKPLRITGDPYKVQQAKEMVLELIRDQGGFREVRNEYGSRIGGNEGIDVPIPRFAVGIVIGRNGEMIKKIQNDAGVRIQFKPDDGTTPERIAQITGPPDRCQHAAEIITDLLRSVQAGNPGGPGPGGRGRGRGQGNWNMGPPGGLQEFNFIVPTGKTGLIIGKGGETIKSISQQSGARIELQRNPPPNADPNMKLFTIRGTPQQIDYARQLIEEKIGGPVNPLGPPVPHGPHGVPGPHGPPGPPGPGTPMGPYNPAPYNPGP

[2] = molecular target: T4, RBFOX2 I153V (Homo sapiens) (UniProt O43251)
T4 sequence: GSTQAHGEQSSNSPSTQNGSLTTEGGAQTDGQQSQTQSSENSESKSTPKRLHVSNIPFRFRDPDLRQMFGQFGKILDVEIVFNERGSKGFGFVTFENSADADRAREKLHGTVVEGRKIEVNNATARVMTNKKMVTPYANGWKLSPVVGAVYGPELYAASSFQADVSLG

ELAVL2 (Homo sapiens) = ELAVL2 (Homo sapiens) (UniProt Q12926)
Sequence of ELAVL2 (Homo sapiens) (Q12926 1-189): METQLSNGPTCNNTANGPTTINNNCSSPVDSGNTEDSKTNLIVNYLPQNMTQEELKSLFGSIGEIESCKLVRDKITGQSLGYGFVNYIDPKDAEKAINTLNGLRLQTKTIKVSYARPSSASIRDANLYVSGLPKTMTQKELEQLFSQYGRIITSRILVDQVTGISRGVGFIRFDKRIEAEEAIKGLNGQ

[3] = molecular target: T5, PFI0820c (Plasmodium falciparum) (UniProt Q8I2Y5)
T5 sequence: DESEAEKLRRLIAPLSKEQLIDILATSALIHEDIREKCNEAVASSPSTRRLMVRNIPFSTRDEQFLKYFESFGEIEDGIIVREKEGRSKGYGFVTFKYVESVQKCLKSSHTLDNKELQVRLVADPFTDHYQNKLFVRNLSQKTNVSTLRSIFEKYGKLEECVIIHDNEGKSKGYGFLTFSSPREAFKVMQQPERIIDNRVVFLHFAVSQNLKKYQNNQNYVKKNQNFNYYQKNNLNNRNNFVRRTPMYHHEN

[4] = molecular target: T6, ENSXETG00000023721 (Xenopus tropicalis) (UniProt A0A803KLF2)
T6 sequence: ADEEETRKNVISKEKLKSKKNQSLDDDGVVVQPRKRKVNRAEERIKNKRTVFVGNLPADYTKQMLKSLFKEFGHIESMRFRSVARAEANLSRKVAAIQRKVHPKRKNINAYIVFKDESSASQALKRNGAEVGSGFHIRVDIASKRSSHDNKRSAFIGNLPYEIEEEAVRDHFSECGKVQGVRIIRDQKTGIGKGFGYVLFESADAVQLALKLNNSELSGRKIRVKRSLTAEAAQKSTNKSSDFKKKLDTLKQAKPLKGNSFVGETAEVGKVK

ESRP1 (Homo sapiens) = molecular target: T7, ESRP1 (Homo sapiens) (UniProt Q6NXG1)
T7 sequence: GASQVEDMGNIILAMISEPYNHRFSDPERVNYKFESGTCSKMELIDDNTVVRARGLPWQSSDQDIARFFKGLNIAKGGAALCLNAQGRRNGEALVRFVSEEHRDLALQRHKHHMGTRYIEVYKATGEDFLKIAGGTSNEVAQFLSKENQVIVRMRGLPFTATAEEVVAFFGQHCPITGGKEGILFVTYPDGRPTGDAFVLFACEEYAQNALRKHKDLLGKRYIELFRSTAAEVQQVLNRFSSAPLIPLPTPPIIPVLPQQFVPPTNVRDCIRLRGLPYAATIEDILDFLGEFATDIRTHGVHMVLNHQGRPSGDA

UUGCACA [RNAcompete motif RNCMPT00830]
binding signal (z-score (mean of top ten 7-mers)) [1]: 12.4

UUUUUUU [RNAcompete motif RNCMPT00820]
binding signal (z-score (mean of top ten 7-mers)) (PUF60 (Homo sapiens)): 12

AUGUAU [RNAcompete motif RNCMPT00822]
binding signal (z-score (mean of top ten 7-mers)) (FUBP1 (Homo sapiens)): 7.78

UGCAUG [RNAcompete motif RNCMPT00818]
binding signal (z-score (mean of top ten 7-mers)) [2]: 26.3

UUAUUUU [RNAcompete motif RNCMPT00814]
binding signal (z-score (mean of top ten 7-mers)) (ELAVL2 (Homo sapiens)): 15.1

GAGAGAA [RNAcompete motif RNCMPT00793]
binding signal (z-score (mean of top ten 7-mers)) [3]: 6.18

GAACG [RNAcompete motif RNCMPT00828]
binding signal (z-score (mean of top ten 7-mers)) [4]: 10.8

GGAUGGGG [RNAcompete motif RNCMPT00808]
binding signal (z-score (mean of top ten 7-mers)) (ESRP1 (Homo sapiens)): 6.61
